Data as given in US20240209086A1 (PETMEDIX, published 2024).
Numbering of substitutions follows the chain as printed.

Target: T1, canine CD20 on cells (HEK293, MDCK II, CLBL-1 or native B cells) (canine, UniProt Q3C2E2 1-297)
T1 construct: also called dCD20; cCD20
T1 chain: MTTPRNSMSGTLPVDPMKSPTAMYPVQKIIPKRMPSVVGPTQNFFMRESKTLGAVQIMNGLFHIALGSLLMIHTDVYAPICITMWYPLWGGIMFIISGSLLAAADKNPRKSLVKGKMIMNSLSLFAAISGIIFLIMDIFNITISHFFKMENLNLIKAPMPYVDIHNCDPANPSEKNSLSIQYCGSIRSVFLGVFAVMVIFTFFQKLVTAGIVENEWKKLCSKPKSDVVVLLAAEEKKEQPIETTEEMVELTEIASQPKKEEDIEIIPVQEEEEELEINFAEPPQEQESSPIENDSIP
Test: flow cytometry, canine CD20 HEK293 cells, 10 µg/ml, FITC anti-canine IgG
Protocol: A CD20 binding screen was performed on candidate proteins produced from the canine CD20 immunisation as described in Examples 2 and 3. CHO cells supernatants containing candidate antibodies were diluted to 10 μg/ml in FACS buffer (PBS containing 3% FBS) and screened for their ability to bind canine CD20 expressed on cell surface. In brief, 1-2×10⁵ canine CD20-expressing HEK cells were incubated with candidate mAbs for one hour at 4° C., at a fixed concentration of 10 μg/ml followed by incubation with 5 μg/ml of FITC-conjugated anti-canine IgG secondary antibody (Bethyl Laboratories) for 1 hour at 4° C. Cells incubated with anti-canine IgG FITC secondary antibody and without primary anti-canine CD20 antibody, or with isotype control primary antibody, were used as negative controls. The data were acquired on either a Beckman Coulter CytoFLEX or a BD Accuri C6 Plus flow cytometer and analysed using FlowJo software.

B1: PMX237 (monospecific anti-canine CD20, canine IgG-B, lambda C5) (antibody, V domains shown)
VH: EVQLVESGGDLVKPGGSLRLSCVASGLTFSRYYMNWVRQAPGKGLQWVAYINSGGSSTDYADAVKGRFTISRDNAKNTLYLQMNSLRVEDTAVYYCASFDYWGQGTLVTVSS
VL: SYVLTQLPSKKVTLKQSAHITCGGDNIGSKSVHWYQQKLGQAPVLIIYHDSSRPTGIPERFSGANSGNTATLTISGALAEDEADYYCQVWDSSANVFGGGTHLTVLG
binding result: binds

B2: PMX238 (monospecific anti-canine CD20, canine IgG-B, lambda C5) (antibody, V domains shown)
VH: EVQLVESGGDLVKPGGSLRLSCVASGFTFSRYHMSWVRQAPGKGLQWVAFINTGRSSTNYADAVAGRFTISRDNAKNTLYLQMNSLRAEDTAVYYCSTLDYWGQGTLVTVSS
VL: B1 VL with K11N, S17P, H49Y
binding result: binds

B3: PMX239 (monospecific anti-canine CD20, canine IgG-B, lambda C5) (antibody, V domains shown)
VH: B1 VH with L27F, Y50F, N52T, D59S, A61G, V88A, A97T
VL: B1 VL with K11N, S17P, H49Y, D50A
binding result: binds

B4: PMX240 (monospecific anti-canine CD20, canine IgG-B, lambda C5) (antibody, V domains shown)
VH: B2 VH with F27L, T53S, S57D, N59T, A65K, S97T, L99F
VL: B1 VL with K11N, S17P, V44A, H49Y
binding result: binds

B5: PMX242 (monospecific anti-canine CD20, canine IgG-B, lambda C5) (antibody, V domains shown)
VH: B2 VH with V2I, F50Y, R55G, S57N, A65K, S97T, Y101S
VL: B1 VL with S9F, K11N, S17P, H49Y, S52R, A94V
binding result: binds

B6: PMX243 (monospecific anti-canine CD20, canine IgG-B, lambda C5) (antibody, V domains shown)
VH: B2 VH with F50Y, T53S, R55G, S57N, N59D, A61T, A65K, T98S
VL: B1 VL with K11N, S17P, H49Y, S51R, S52R, S92R, A94G
binding result: binds

B7: PMX245 (monospecific anti-canine CD20, canine IgG-B, lambda C5) (antibody, V domains shown)
VH: B1 VH with Y33H, N35S, A63G, V88A, A97T, F99L, D100E, Y101D
VL: B1 VL with K11N, S17P, H49Y, A94V
binding result: binds

B8: PMX246 (monospecific anti-canine CD20, canine IgG-B, lambda C5) (antibody, V domains shown)
VH: B2 VH with V2M, F50Y, T53S, R55G, S57P, A65K, S97T, L99Y, Y101Q
VL: B1 VL with K11S, S17P, H49Y, S92T
binding result: binds

B9: PMX247 (monospecific anti-canine CD20, canine IgG-B, lambda C5) (antibody, V domains shown)
VH: B1 VH with L27F, Y33H, N35S, S57P, T58S, D59S, V88A, A97T, Y101C
VL: B1 VL with K11N, S17P, H49Y, S52R
binding result: binds

B10: PMX248 (monospecific anti-canine CD20, canine IgG-B, lambda C5) (antibody, V domains shown)
VH: B2 VH with F50Y, T53S, R55G, S57T, N59S, A65K, V93I, Y95F, S97T, T98S
VL: B1 VL with K11N, S17P, V44I, H49Y, S52R
binding result: binds

B11: PMX249 (monospecific anti-canine CD20, canine IgG-B, lambda C5) (antibody, V domains shown)
VH: B1 VH with L27F, Y33H, N35S, D59S, V88A
VL: B1 VL with S1P, K11N, S17P, H49Y, S52R
binding result: binds

B12: PMX252 (monospecific anti-canine CD20, canine IgG-B, lambda C5) (antibody, V domains shown)
VH: B1 VH with L27F, Y33H, N35S, D59S, V88A, F99L
VL: B1 VL with K11N, S17P, H49Y, S92I
binding result: binds

B13: PMX253 (monospecific anti-canine CD20, canine IgG-B, lambda C5) (antibody, V domains shown)
VH: B1 VH with L4M, L27F, S56G, D59S, V88A, A97S
VL: B1 VL with K11N, S17P, H49Y
binding result: binds

B14: PMX256 (monospecific anti-canine CD20, canine IgG-B, lambda C5) (antibody, V domains shown)
VH: B2 VH with R31S, F50Y, T53S, R55G, N59S, A65K, L81F, S97T, L99F, Y101S
VL: B1 VL with K11N, S17P, H49Y
binding result: binds

B15: PMX257 (monospecific anti-canine CD20, canine IgG-B, lambda C5) (antibody, V domains shown)
VH: EVQLVESGGDLVKPGGSLRLSCVASGFTFSSYHMSWVRQAPGKGLQWVAYINSGGSSTSYADAVKGRFTISRDNAYSTLFLQMNNLRAEDTAVYYCTTLDSWGQGTLVTVSS
VL: B1 VL with K11N, S17P, H49Y
binding result: binds

B16: PMX258 (monospecific anti-canine CD20, canine IgG-B, lambda C5) (antibody, V domains shown)
VH: B1 VH with S53T, D59S, V88A
VL: B1 VL with K11N, S17P, H49Y
binding result: binds

B17: PMX259 (monospecific anti-canine CD20, canine IgG-B, lambda C5) (antibody, V domains shown)
VH: B1 VH with L27F, Y33H, N35S, D59S, V88A
VL: B1 VL with K11N, S17P, H49Y, S52N, A94G
binding result: binds

B18: PMX260 (monospecific anti-canine CD20, canine IgG-B, lambda C5) (antibody, V domains shown)
VH: B2 VH with S30R, F50Y, N52D, T53S, R55G, S57G, N59S, A65K, T98S
VL: B1 VL with K11N, S17P, H49Y, S52R, A94G
binding result: binds

B19: PMX261 (monospecific anti-canine CD20, canine IgG-B, lambda C5) (antibody, V domains shown)
VH: B1 VH with L27I, N52D, S57P, D59T, N77K, T78A, V88A, A97T
VL: B1 VL with K11N, S17P, H49Y, Y86F
binding result: binds

B20: PMX262 (monospecific anti-canine CD20, canine IgG-B, lambda C5) (antibody, V domains shown)
VH: B1 VH with L27I, S57P, D59T, V88A, A97T
VL: B1 VL with K11N, S17P, V44I, H49Y, S51T
binding result: binds

B21: PMX263 (monospecific anti-canine CD20, canine IgG-B, lambda C5) (antibody, V domains shown)
VH: B1 VH with L27F, D59S, V88A, E89D, A97T
VL: B1 VL with K11N, S17P, H49Y
binding result: binds

B22: PMX264 (monospecific anti-canine CD20, canine IgG-B, lambda C5) (antibody, V domains shown)
VH: B2 VH with S56M, A65K, S97T, T98S
VL: B1 VL with K11N, S17P, H49Y
binding result: binds

B23: PMX266 (monospecific anti-canine CD20, canine IgG-B, lambda C5) (antibody, V domains shown)
VH: B15 VH with V2L, S31R, Y76K, S77N, F80Y, N85S, L99F
VL: B1 VL with K11N, S17P, H49Y, S92I
binding result: binds

B24: PMX267 (monospecific anti-canine CD20, canine IgG-B, lambda C5) (antibody, V domains shown)
VH: EMQLVESGGDLVKPGGSLRLSCVASGFTFSRYHMSWVRQAPGKGLQWVAYIDSDGINTNYADAVKGRFTISRDNAKNTLYLQMNSLRAEDTALYYCTTFDYWGQGTLVTVSS
VL: B1 VL with K11N, S17P, H49Y, A94G
binding result: binds

B25: PMX232 (monospecific anti-canine CD20, canine IgG-B, lambda C5) (antibody, V domains shown)
VH: EMQLVESGGDLVKPGESLRLSCVASGISFNNYHMSWVRQAPGKGLQWVAYIDSVGTSTTYADAVKGRFTISRDNAKNTLYLQMNSLRAEDTAVYYCTTFDSWGQGTLVTVSS
VL: B1 VL with K11N, S17P, H49Y, S52R
binding result: binds

B26: PMX235 (monospecific anti-canine CD20, canine IgG-B, lambda C5) (antibody, V domains shown)
VH: B2 VH with F27I, H33Y, S35N, F50Y, R55E, N59I, A61S, A65K, S97T, D100E
VL: B1 VL with K11N, S17P, V44A, H49Y, S51N, S52R, A94D
binding result: binds

B27: PMX241 (monospecific anti-canine CD20, canine IgG-B, lambda C5) (antibody, V domains shown)
VH: B2 VH with F27I, R31G, T53S, S56R, N59S, A65K, V93I, S97T, D100E, Y101F
VL: B1 VL with K11N, S17P, H49Y, S52R, S75N, V89M, A94V
binding result: binds

B28: PMX254 (monospecific anti-canine CD20, canine IgG-B, lambda C5) (antibody, V domains shown)
VH: EVQLVESGGDLVKPGGSLRLSCVASGFTFSRYHMSWIRQAPGKGLQWVAFIDSDGSGTRYADAVKGRFTFSRDNAKNTLYLQMSSLRAEDTAVYYCTSLEFWGQGTLVTVSS
VL: B1 VL with K11N, S17P, H49Y
binding result: binds

B29: PMX255 (monospecific anti-canine CD20, canine IgG-B, lambda C5) (antibody, V domains shown)
VH: B28 VH with T58A, S84N, F101Y
VL: B1 VL with K11N, S17P, I27V, H49Y, S52R
binding result: binds
